# In the supplement of paper PMC10567573:
# B1: KRT15 (parent)
# chain: FGGGSTRGGSLLAGGGGFGGGSLS
# Variants of: B1
# Assay: protein stability index of a GFP-peptide fusion (GPS, HEK-293T) (PSI 1-6); higher = more stable
# Conditions: c terminus: a fixed tail appended
# 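Further: lentivirally expressed fusions sorted by FACS into six bins by GFP to DsRed ratio, PSI derived from sequencing read proportions per bin multiplied by bin number.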
row,Variant,protein stability index
1,FGGGSTNGGSLLAGGGGFGGGSLS [R7N],1.7
2,FGGGSTKGGSLLAGGGGFGGGSLS [R7K],2.32
3,FGGGSTPGGSLLAGGGGFGGGSLS [R7P],3.05
4,FGGGSTDGGSLLAGGGGFGGGSLS [R7D],1.54
5,FGGGSTRGGSLLMGGGGFGGGSLS [A13M],2.13
6,FGGGSTRGGSLLRGGGGFGGGSLS [A13R],2.67
7,FGGGSTRGGSLLIGGGGFGGGSLS [A13I],1.46
8,FGGGSTRGGSLLCGGGGFGGGSLS [A13C],1.94
9,FGGGSTRGGSLLLGGGGFGGGSLS [A13L],2.1
10,FGGGSTRGGSLLHGGGGFGGGSLS [A13H],2.53
11,FGGGSTRGGSLLDGGGGFGGGSLS [A13D],3.4
12,FGGGSTRGGSLLVGGGGFGGGSLS [A13V],1.94
13,FGGGFTRGGSLLAGGGGFGGGSLS [S5F],2.1
14,FGGGATRGGSLLAGGGGFGGGSLS [S5A],1.57
15,FGGGSTRGGSLLAGGGGHGGGSLS [F18H],3
16,FGGGSTRGGRLLAGGGGFGGGSLS [S10R],1.4
17,FGGGSTRGGPLLAGGGGFGGGSLS [S10P],2.12
18,FGGGSTRGGQLLAGGGGFGGGSLS [S10Q],1.89
19,FGGGSTRGGILLAGGGGFGGGSLS [S10I],1.79
20,FGGGSTRGGKLLAGGGGFGGGSLS [S10K],1.28
21,FGGGSTRGGWLLAGGGGFGGGSLS [S10W],4.19
22,FGGGSTRGGSLLAGGGGFGGGSLI [S24I],1.84
23,FGGGSTRGGSLLAGGGGFGGGSLD [S24D],1.61
24,FGGGSTRGGSLLAGGGGFGGGSLK [S24K],1.49

row,Variant,protein stability index
1,FGGGSTRGGSLLAGGGGFGGGSLP [S24P],2.66
2,FGGGSTRGGSLLAGGGGFGGGSLM [S24M],3.68
3,FGGGSTRGGSLLAGGGGFGGGSLT [S24T],2.51
4,FGGGSTRGGSLLAGGGGFGGGSLN [S24N],1.71
5,FGGGSTRGGSLQAGGGGFGGGSLS [L12Q],2.67
6,FGGGSTRGGSLDAGGGGFGGGSLS [L12D],3.38
7,FGGGSTRGGSLNAGGGGFGGGSLS [L12N],3.01
8,FGGGSTRGGSLRAGGGGFGGGSLS [L12R],3.6
9,FGGGSTRGGSLMAGGGGFGGGSLS [L12M],2.58
10,FGGGSTRGGSLPAGGGGFGGGSLS [L12P],3.24
11,FGGGSTRGGSLIAGGGGFGGGSLS [L12I],2.75
12,FGGGSTRGGSLYAGGGGFGGGSLS [L12Y],1.52
13,FGGGSTRGGSLEAGGGGFGGGSLS [L12E],2.72
14,FGGGSTRGGSLCAGGGGFGGGSLS [L12C],1.7
15,FGGGSTRGGSLGAGGGGFGGGSLS [L12G],3.23
16,FPGGSTRGGSLLAGGGGFGGGSLS [G2P],1.96
17,FSGGSTRGGSLLAGGGGFGGGSLS [G2S],1.75
18,FKGGSTRGGSLLAGGGGFGGGSLS [G2K],3.23
19,FRGGSTRGGSLLAGGGGFGGGSLS [G2R],2.79
20,FQGGSTRGGSLLAGGGGFGGGSLS [G2Q],2
21,FNGGSTRGGSLLAGGGGFGGGSLS [G2N],2.94
22,FFGGSTRGGSLLAGGGGFGGGSLS [G2F],2.47
23,FGGFSTRGGSLLAGGGGFGGGSLS [G4F],1.77
24,FGGESTRGGSLLAGGGGFGGGSLS [G4E],2.55

row,Variant,protein stability index
1,FGGPSTRGGSLLAGGGGFGGGSLS [G4P],2.94
2,FGGRSTRGGSLLAGGGGFGGGSLS [G4R],1.58
3,FGGKSTRGGSLLAGGGGFGGGSLS [G4K],2.15
4,FGGSSTRGGSLLAGGGGFGGGSLS [G4S],1.68
5,FGGISTRGGSLLAGGGGFGGGSLS [G4I],2.59
6,FGGCSTRGGSLLAGGGGFGGGSLS [G4C],1.37
7,FGGHSTRGGSLLAGGGGFGGGSLS [G4H],2.22
8,FGGWSTRGGSLLAGGGGFGGGSLS [G4W],2.61
9,FGGQSTRGGSLLAGGGGFGGGSLS [G4Q],2.17
10,FGGLSTRGGSLLAGGGGFGGGSLS [G4L],2.04
11,FGGMSTRGGSLLAGGGGFGGGSLS [G4M],1.89
12,FGGGSTRGGSLLAGGTGFGGGSLS [G16T],1.09
13,FGGGSTRGGSLLAGGKGFGGGSLS [G16K],2.14
14,FGGGSTRGGSLLAGGMGFGGGSLS [G16M],2.16
15,FGGGSTRGGSLLAGGEGFGGGSLS [G16E],1.55
16,FGGGSTRGGSLLAGGDGFGGGSLS [G16D],1.84
17,FGGGSTRGGSLLAGGRGFGGGSLS [G16R],1.56
18,FGGGSTRGVSLLAGGGGFGGGSLS [G9V],1.84
19,FGGGSTRGQSLLAGGGGFGGGSLS [G9Q],3.25
20,FGGGSTRGSSLLAGGGGFGGGSLS [G9S],1.05
21,FGGGSTRGNSLLAGGGGFGGGSLS [G9N],2.35
22,FGGGSTRGGSLLAGGGGFDGGSLS [G19D],1.47
23,FGGGSTRGGSLLAGGGGFKGGSLS [G19K],3.1
24,FGGGSTRGGSLLAGGGGFEGGSLS [G19E],2.35

row,Variant,protein stability index
1,FGGGSTRGGSLLAGGGGFSGGSLS [G19S],2.06
2,FGGGSTRGGSLLAGGGGFIGGSLS [G19I],3.12
3,FGGGSTRDGSLLAGGGGFGGGSLS [G8D],1.57
4,FGGGSTRIGSLLAGGGGFGGGSLS [G8I],1.58
5,FGGGSTRRGSLLAGGGGFGGGSLS [G8R],2.5
6,FGGGSTRSGSLLAGGGGFGGGSLS [G8S],1.62
7,FGGGSTRFGSLLAGGGGFGGGSLS [G8F],3.67
8,FGGGSTRGGSLLAGGGGFGQGSLS [G20Q],1.09
9,FGGGSTRGGSLLAGGGGFGYGSLS [G20Y],2.52
10,FGGGSTRGGSLLAGGGGFGTGSLS [G20T],1.74
11,FGGGSTRGGSLLAGGGGFGCGSLS [G20C],1.41
12,FGGGSTRGGSLLAGGGGFGPGSLS [G20P],3.18
13,FGGGSTRGGSLLAGGGGFGKGSLS [G20K],2.1
14,FGGGSTRGGSNLAGGGGFGGGSLS [L11N],2.78
15,FGGGSTRGGSILAGGGGFGGGSLS [L11I],1.56
16,FGGGSTRGGSALAGGGGFGGGSLS [L11A],2.83
17,FGGGSTRGGSRLAGGGGFGGGSLS [L11R],2.08
18,FGGGSTRGGSFLAGGGGFGGGSLS [L11F],1
19,FGGGSTRGGSMLAGGGGFGGGSLS [L11M],1.6
20,FGGGSHRGGSLLAGGGGFGGGSLS [T6H],1.48
21,FGGGSERGGSLLAGGGGFGGGSLS [T6E],1.62
22,FGGGSMRGGSLLAGGGGFGGGSLS [T6M],1.33
